Data published in the RNAGym collection of RNA variant scans (doi:10.7554/elife.90254).

B1: LINE1-full (parent)
chain: UACGUAGGUGGUUUUCCCCUGAUAGUGCUAAGGGGGCCUGGAAGUUUGGACUGGGCAGAGCUCAACACAGCGUGGCAAAGUGGCUGUGGCUAGACUGCCUCUCUGGAUUCCUCGUCACUCAGCAGGGCAUCUCUGAGAGAAAUGCC

Variants of: B1
Assay: self-cleavage, relative activity (ratio to wild type); higher = more cleavage; in vitro, sequencing; the parent is a self-cleaving ribozyme

| Variant | self-cleavage |
| --- | --- |
| A24G A107U | 1.05 |
| U12A C66U | 0.06 |
| U15C C90A | 0.02 |
| U62A A124G | 0.02 |
| U14A A124G | 0.62 |
| U20C C123A | 1.34 |
| G33A U87C | 0.2 |
| G32U U39A | 1.06 |
| A59U U143A | 0.75 |
| U62C U104A | 0.05 |
| C17G U108C | 0.81 |
| G55A | 0.19 |
| U26A U62A | 0.05 |
| A59G A121U | 0.08 |
| G8C | 1.66 |
| U85C G105U | 0.14 |
| U5C G97A | 0 |
| A6U U102C | 0.68 |
| U26A U132C | 1.15 |
| U12C A59G | 0.15 |
| A65G A129U | 0.02 |
| A42G U108A | 0.71 |
| G72A G137A | 0.46 |
| A22U C123A | 1.17 |

| Variant | self-cleavage |
| --- | --- |
| U91A A136G | 0.36 |
| U12A U112C | 1.3 |
| G7A A94U | 0 |
| U20G A142G | 1.09 |
| U100A U115A | 0.72 |
| G25A C99G | 0.06 |
| A30U A59G | 0.22 |
| A24G A140U | 0.9 |
| A79G A124G | 0.62 |
| U62C U85G | 0 |
| U46C A67C | 0.05 |
| C71A C128U | 0.18 |
| A30G C66U | 0.05 |
| U15A U62A | 0.04 |
| G55A U102C | 0.17 |
| U96A A141G | 0.08 |
| U13C U46C | 1.17 |
| A57G A121U | 1 |
| U26C C120U | 1.17 |
| U20A G122U | 1.59 |
| U15C C103U | 1.53 |
| G49A C133G | 1.39 |
| G32A G89U | 0.04 |
| A67U U87A | 0.57 |

| Variant | self-cleavage |
| --- | --- |
| U9G G74A | 0.88 |
| U9A U46A | 1.22 |
| A50U G54U | 0.66 |
| U85C C146A | 0.48 |
| G75A | 1.11 |
| U39C A69G | 0.39 |
| A2U G127C | 1.16 |
| A64G G86A | 0.08 |
| A77C U85A | 0.18 |
| U15C G40A | 0.3 |
| A50G A78C | 0 |
| A77U U134A | 0.57 |
| A6U G127A | 0.59 |
| A69G U119C | 0.64 |
| U104A A140G | 0.47 |
| U29C G144A | 1.22 |
| A30U G72A | 1.24 |
| U5A A67G | 0.7 |
| U81G U134G | 1.73 |
| G49U U143C | 0.84 |
| C66U A77G | 0.07 |
| U134A C146U | 0.6 |
| U15A U23A | 0.76 |
| G49C U115C | 2.02 |

| Variant | self-cleavage |
| --- | --- |
| G34A G144A | 1.31 |
| U13C G25A | 1.31 |
| U45C U47C | 1.23 |
| U9A C19U | 0.71 |
| U15C C84G | 0.21 |
| U39C G114A | 1.04 |
| C51U A67C | 0.05 |
| U96A U134C | 0.08 |
| U20G U108C | 1.97 |
| U15A G44A | 1.32 |
| U9C C118U | 0.92 |
| U29C U45A | 0 |
| A22U C103U | 1.42 |
| U9C U62C | 0.18 |
| C128U A136U | 1.67 |
| G89C U130C | 0.09 |
| A77G A79G | 0.95 |
| U87C G137U | 0.27 |
| G60A A124U | 0.02 |
| A67U G106A | 0.15 |
| G122U A142G | 1.52 |
| A78U A142G | 1.87 |
| U47C A69U | 0.06 |
| U45C A65C | 0.08 |

| Variant | self-cleavage |
| --- | --- |
| U52G U62C | 0.09 |
| A59C U130C | 0.8 |
| A65U A136G | 0.2 |
| U14C U26G | 1.61 |
| U1C C38A | 0.55 |
| C56U A78G | 0.06 |
| C56U A78U | 0.15 |
| A30G U130C | 1.36 |
| U109A U115C | 1.43 |
| A6G U134G | 0.8 |
| G25C U119C | 1.58 |
| A64C A65G | 0.19 |
| U96A A107G | 0.08 |
| U20C U91C | 0.76 |
| A6G U52A | 0.43 |
| A31U C101U | 0.58 |
| A107C U143C | 1.67 |
| A59G U109C | 0.17 |
| U115C C146G | 1.93 |
| U12A A31U | 2 |
| U12A U102A | 1.79 |
| G10U U13C | 0.83 |
| U112C A124U | 1.21 |
| A65G U102A | 0.01 |

| Variant | self-cleavage |
| --- | --- |
| A43G A138U | 1.31 |
| A124U A142G | 1.51 |
| U9A A121U | 2.38 |
| A92U U132C | 0.83 |
| U26C U102C | 1.22 |
| U14A G36U | 1.12 |
| A78G U130G | 1.88 |
| A50G U112A | 1.02 |
| G122U A136U | 1.31 |
| A77U U85C | 0.09 |
| C3U U85A | 0.28 |
| A43U U52A | 1.04 |
| U52C G82A | 1.7 |
| G36C U102C | 1.08 |
| A30G U52A | 1.21 |
| U85A U108C | 0.12 |
| A50U U62A | 0.01 |
| U23C U46C | 1.52 |
| U100C C111U | 1.48 |
| G60A U132C | 0.03 |
| U46G A117U | 2.76 |
| C19A A138G | 0.72 |
| A31G A138U | 1.05 |
| C19U G125U | 1.81 |

| Variant | self-cleavage |
| --- | --- |
| U26C A59C | 1.37 |
| U26C U119A | 1.25 |
| A77G G89A | 0.03 |
| U26A G126A | 0.82 |
| G60A A69U | 0.03 |
| U13C C38U | 1.15 |
| G33C U119C | 1.8 |
| A22G A79G | 0.76 |
| A142U | 1.22 |
| G40A U115C | 1.18 |
| A65G A79U | 0.04 |
| U81G A124U | 1.75 |
| G7A G127A | 1.3 |
| G54U A117G | 0.52 |
| U62G U87G | 0 |
| G83A U100C | 1.21 |
| U100C U102A | 1.95 |
| A142G U143G | 0.16 |
| G34A A140G | 0.5 |
| A77G U119C | 2.81 |
| A30G G75A | 1.05 |
| A57U U130A | 0.15 |
| A43G A67G | 0.46 |
